Numbered stars: 1 amine (or outer) side, 2 acyl side, 3 side chain; on linkers, the order of the positions; unused ones are H or OH. Bridge positions count the residues as written; N and C are the ends. Side chains are listed from the residue outwards. Ends that are not written are not given here. * marks the point of attachment. C20 diacid = O=C(O)CCCCCCCCCCCCCCCCCCC(=O)*; γGlu = O=C(O)[C@H](CCC(=O)[*:2])N[*:1]
T1: human amylin receptor (Amylin 3(a) receptor: human calcitonin receptor co-expressed with RAMP-3) (human, UniProt P30988 25-474; O60896 24-148, limits assumed)
T1 construct: whole, on cells; Used as cell membranes prepared from the Amylin 3(a)/CRE-luc BHK cells (Assay V); the complex is called the human amylin receptor; also called hAmylin-R; hAmylinR
T1 sequence (looked up) 1: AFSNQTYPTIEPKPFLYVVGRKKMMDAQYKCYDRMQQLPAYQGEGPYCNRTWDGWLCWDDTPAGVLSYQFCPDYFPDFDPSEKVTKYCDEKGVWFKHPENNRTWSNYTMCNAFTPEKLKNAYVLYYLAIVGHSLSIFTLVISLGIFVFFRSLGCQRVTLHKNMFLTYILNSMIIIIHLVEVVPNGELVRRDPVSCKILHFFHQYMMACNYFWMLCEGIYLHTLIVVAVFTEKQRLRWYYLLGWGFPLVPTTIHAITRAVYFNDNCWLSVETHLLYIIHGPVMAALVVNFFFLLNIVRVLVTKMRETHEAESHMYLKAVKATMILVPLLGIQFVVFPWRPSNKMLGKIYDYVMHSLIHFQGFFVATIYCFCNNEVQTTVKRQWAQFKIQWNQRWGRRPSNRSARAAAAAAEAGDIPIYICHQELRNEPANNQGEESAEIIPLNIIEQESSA
T1 sequence (looked up) 2: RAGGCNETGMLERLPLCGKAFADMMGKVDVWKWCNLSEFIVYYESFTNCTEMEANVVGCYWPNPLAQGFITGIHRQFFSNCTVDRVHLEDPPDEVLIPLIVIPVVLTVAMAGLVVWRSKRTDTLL

B1: N^ε1-[(4S)-4-carboxy-4-[[(4S)-4-carboxy-4-(19-carboxynonadecanoylamino)butanoyl]amino]butanoyl]-[Glu14,Arg17,Pro21,Pro27,His34,Glu35]-h-amylin (peptide)
peptide: K([γGlu-γGlu-C20 diacid])CNTATCATQRLAEFLRHSSPNFGAIPSSTNVGHETY-NH2
modifications: disulfide 2-7; N-terminus assumed
SMILES: CC[C@H](C)[C@H](NC(=O)[C@H](C)NC(=O)CNC(=O)[C@H](Cc1ccccc1)NC(=O)[C@H](CC(N)=O)NC(=O)[C@@H]1CCCN1C(=O)[C@H](CO)NC(=O)[C@H](CO)NC(=O)[C@H](Cc1c[nH]cn1)NC(=O)[C@H](CCCNC(=N)N)NC(=O)[C@H](CC(C)C)NC(=O)[C@H](Cc1ccccc1)NC(=O)[C@H](CCC(=O)O)NC(=O)[C@H](C)NC(=O)[C@H](CC(C)C)NC(=O)[C@H](CCCNC(=N)N)NC(=O)[C@H](CCC(N)=O)NC(=O)[C@@H](NC(=O)[C@H](C)NC(=O)[C@@H]1CSSC[C@H](NC(=O)[C@@H](N)CCCCNC(=O)CC[C@H](NC(=O)CC[C@H](NC(=O)CCCCCCCCCCCCCCCCCCC(=O)O)C(=O)O)C(=O)O)C(=O)N[C@@H](CC(N)=O)C(=O)N[C@@H]([C@@H](C)O)C(=O)N[C@@H](C)C(=O)N[C@@H]([C@@H](C)O)C(=O)N1)[C@@H](C)O)C(=O)N1CCC[C@H]1C(=O)N[C@@H](CO)C(=O)N[C@@H](CO)C(=O)N[C@H](C(=O)N[C@@H](CC(N)=O)C(=O)N[C@H](C(=O)NCC(=O)N[C@@H](Cc1c[nH]cn1)C(=O)N[C@@H](CCC(=O)O)C(=O)N[C@H](C(=O)N[C@@H](Cc1ccc(O)cc1)C(N)=O)[C@@H](C)O)C(C)C)[C@@H](C)O
notes: modifications are with respect to human amylin
B2: N^ε1-[(4S)-4-carboxy-4-[[(4S)-4-carboxy-4-(19-carboxynonadecanoylamino)butanoyl]amino]butanoyl]-[Glu14,Arg17,Pro21,Pro27,Pro34,Phe37]-h-amylin (peptide)
peptide: K([γGlu-γGlu-C20 diacid])CNTATCATQRLAEFLRHSSPNFGAIPSSTNVGPNTF-NH2
modifications: disulfide 2-7; N-terminus assumed
SMILES: CC[C@H](C)[C@H](NC(=O)[C@H](C)NC(=O)CNC(=O)[C@H](Cc1ccccc1)NC(=O)[C@H](CC(N)=O)NC(=O)[C@@H]1CCCN1C(=O)[C@H](CO)NC(=O)[C@H](CO)NC(=O)[C@H](Cc1c[nH]cn1)NC(=O)[C@H](CCCNC(=N)N)NC(=O)[C@H](CC(C)C)NC(=O)[C@H](Cc1ccccc1)NC(=O)[C@H](CCC(=O)O)NC(=O)[C@H](C)NC(=O)[C@H](CC(C)C)NC(=O)[C@H](CCCNC(=N)N)NC(=O)[C@H](CCC(N)=O)NC(=O)[C@@H](NC(=O)[C@H](C)NC(=O)[C@@H]1CSSC[C@H](NC(=O)[C@@H](N)CCCCNC(=O)CC[C@H](NC(=O)CC[C@H](NC(=O)CCCCCCCCCCCCCCCCCCC(=O)O)C(=O)O)C(=O)O)C(=O)N[C@@H](CC(N)=O)C(=O)N[C@@H]([C@@H](C)O)C(=O)N[C@@H](C)C(=O)N[C@@H]([C@@H](C)O)C(=O)N1)[C@@H](C)O)C(=O)N1CCC[C@H]1C(=O)N[C@@H](CO)C(=O)N[C@@H](CO)C(=O)N[C@H](C(=O)N[C@@H](CC(N)=O)C(=O)N[C@H](C(=O)NCC(=O)N1CCC[C@H]1C(=O)N[C@@H](CC(N)=O)C(=O)N[C@H](C(=O)N[C@@H](Cc1ccccc1)C(N)=O)[C@@H](C)O)C(C)C)[C@@H](C)O
notes: as for B1
B3: N^ε1-[(4S)-4-carboxy-4-[[(4S)-4-carboxy-4-(19-carboxynonadecanoylamino)butanoyl]amino]butanoyl]-[Glu14,Arg17,Pro21,Pro27,Pro34,His35]-h-amylin (peptide)
peptide: K([γGlu-γGlu-C20 diacid])CNTATCATQRLAEFLRHSSPNFGAIPSSTNVGPHTY-NH2
modifications: disulfide 2-7 (inferred)
notes: as for B1
B4: N^ε1-[(4S)-4-carboxy-4-[[(4S)-4-carboxy-4-(19-carboxynonadecanoylamino)butanoyl]amino]butanoyl]-[Glu14,Arg17,Pro21,Pro27,Pro34,Arg35]-h-amylin (peptide)
peptide: K([γGlu-γGlu-C20 diacid])CNTATCATQRLAEFLRHSSPNFGAIPSSTNVGPRTY-NH2
modifications: disulfide 2-7; N-terminus assumed
SMILES: CC[C@H](C)[C@H](NC(=O)[C@H](C)NC(=O)CNC(=O)[C@H](Cc1ccccc1)NC(=O)[C@H](CC(N)=O)NC(=O)[C@@H]1CCCN1C(=O)[C@H](CO)NC(=O)[C@H](CO)NC(=O)[C@H](Cc1c[nH]cn1)NC(=O)[C@H](CCCNC(=N)N)NC(=O)[C@H](CC(C)C)NC(=O)[C@H](Cc1ccccc1)NC(=O)[C@H](CCC(=O)O)NC(=O)[C@H](C)NC(=O)[C@H](CC(C)C)NC(=O)[C@H](CCCNC(=N)N)NC(=O)[C@H](CCC(N)=O)NC(=O)[C@@H](NC(=O)[C@H](C)NC(=O)[C@@H]1CSSC[C@H](NC(=O)[C@@H](N)CCCCNC(=O)CC[C@H](NC(=O)CC[C@H](NC(=O)CCCCCCCCCCCCCCCCCCC(=O)O)C(=O)O)C(=O)O)C(=O)N[C@@H](CC(N)=O)C(=O)N[C@@H]([C@@H](C)O)C(=O)N[C@@H](C)C(=O)N[C@@H]([C@@H](C)O)C(=O)N1)[C@@H](C)O)C(=O)N1CCC[C@H]1C(=O)N[C@@H](CO)C(=O)N[C@@H](CO)C(=O)N[C@H](C(=O)N[C@@H](CC(N)=O)C(=O)N[C@H](C(=O)NCC(=O)N1CCC[C@H]1C(=O)N[C@@H](CCCNC(=N)N)C(=O)N[C@H](C(=O)N[C@@H](Cc1ccc(O)cc1)C(N)=O)[C@@H](C)O)C(C)C)[C@@H](C)O
notes: modifications are with respect to human amylin; also called compound 110
B5: N^ε1-[(4S)-4-carboxy-4-[[(4S)-4-carboxy-4-(19-carboxynonadecanoylamino)butanoyl]amino]butanoyl]-[Glu14,Arg17,Pro21,Pro31,Pro34,Glu35]-h-amylin (peptide)
peptide: K([γGlu-γGlu-C20 diacid])CNTATCATQRLAEFLRHSSPNFGAILSSTPVGPETY-NH2
modifications: disulfide 2-7 (inferred)
notes: as for B1
B6: N^ε1-[(4S)-4-carboxy-4-[[(4S)-4-carboxy-4-(19-carboxynonadecanoylamino)butanoyl]amino]butanoyl]-[Glu14,Arg17,Pro23,Pro34,Glu35]-h-amylin (peptide)
peptide: K([γGlu-γGlu-C20 diacid])CNTATCATQRLAEFLRHSSNNPGAILSSTNVGPETY-NH2
modifications: disulfide 2-7; N-terminus assumed
SMILES: CC[C@H](C)[C@H](NC(=O)[C@H](C)NC(=O)CNC(=O)[C@@H]1CCCN1C(=O)[C@H](CC(N)=O)NC(=O)[C@H](CC(N)=O)NC(=O)[C@H](CO)NC(=O)[C@H](CO)NC(=O)[C@H](Cc1c[nH]cn1)NC(=O)[C@H](CCCNC(=N)N)NC(=O)[C@H](CC(C)C)NC(=O)[C@H](Cc1ccccc1)NC(=O)[C@H](CCC(=O)O)NC(=O)[C@H](C)NC(=O)[C@H](CC(C)C)NC(=O)[C@H](CCCNC(=N)N)NC(=O)[C@H](CCC(N)=O)NC(=O)[C@@H](NC(=O)[C@H](C)NC(=O)[C@@H]1CSSC[C@H](NC(=O)[C@@H](N)CCCCNC(=O)CC[C@H](NC(=O)CC[C@H](NC(=O)CCCCCCCCCCCCCCCCCCC(=O)O)C(=O)O)C(=O)O)C(=O)N[C@@H](CC(N)=O)C(=O)N[C@@H]([C@@H](C)O)C(=O)N[C@@H](C)C(=O)N[C@@H]([C@@H](C)O)C(=O)N1)[C@@H](C)O)C(=O)N[C@@H](CC(C)C)C(=O)N[C@@H](CO)C(=O)N[C@@H](CO)C(=O)N[C@H](C(=O)N[C@@H](CC(N)=O)C(=O)N[C@H](C(=O)NCC(=O)N1CCC[C@H]1C(=O)N[C@@H](CCC(=O)O)C(=O)N[C@H](C(=O)N[C@@H](Cc1ccc(O)cc1)C(N)=O)[C@@H](C)O)C(C)C)[C@@H](C)O
notes: as for B1

What follows are binders tested against T1, human amylin receptor (Amylin 3(a) …) (assay: SPA competition binding, displacement of 125I-rat amylin from membranes of BHK cells with human calcitonin receptor + RAMP-3 (Assay V)).
How it was run: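 One-site competition analysis of SPA counts yielded IC₅₀ as a measure of affinity. Membranes were at 35 ng/μL final; incubation was 120 min at 25° C, pH 7.4.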

IC50 [nM] | Binder
0.525 | B1
0.152 | B2
0.377 | B3
0.326 | B4
0.069 | B5
1.19 | B6

From patent US20140087995A1 (published 2014)
